Data: patent publication US20070105771A1 (Y S THERAPEUTICS, published 2007)

How the values were obtained:
[1] = target: T1, Purified recombinant human CD26 (rhDipeptidyl peptidase IV), R&D Systems CAT #1180-SE (human, UniProt P27487 29-766); assay: SPR (Biacore)
T1 construct: Bought recombinant protein; also called hu-CD26; soluble human CD26

[2] = target: T2, human CD26-derived 13 mer peptide 67 (human); assay: peptide microarray
T2 construct: also called LPSYRITWTGKED
T2 peptide: LPSYRITWTGKED
Description: (§1) The overnight incubation was followed by three washings with each of PBS buffer pH 7.5 and water. The microarrays were then scanned using ArrayWorx-Microarray Scanner.
(§2) The SPOT recognition software package ArrayPro was used for data analysis. The mean of signal intensities from 3 identical subarrays on each microarray image was used for data evaluation.

[3] = target: T3, human CD26-derived 13 mer peptide 71 (human); assay: peptide microarray
T3 peptide: TGKEDIIYNGITD
Description: as §1, §2

[4] = target: T4, human CD26-derived 13 mer peptide 73 (human); assay: peptide microarray
T4 peptide: DIIYNGITDWVYE
Description: as §1, §2

[5] = target: T5, human CD26-derived 13 mer peptide 79 (human); assay: peptide microarray
T5 peptide: EEEVFSAYSALWW
Description: as §1, §2

[6] = target: T6, human CD26-derived 13 mer peptide 86 (human); assay: peptide microarray
T6 peptide: PNGTFLAYAQFND
Description: as §1, §2

[7] = target: T7, human CD26-derived 13 mer peptide 87 (human); assay: peptide microarray
T7 peptide: GTFLAYAQFNDTE
Description: as §1, §2

[8] = target: T8, human CD26-derived 13 mer peptide 89 (human); assay: peptide microarray
T8 peptide: AYAQFNDTEVPLI
Description: as §1, §2

[9] = target: T9, human CD26-derived 13 mer peptide 93 (human); assay: peptide microarray
T9 peptide: EVPLIEYSFYSDE
Description: as §1, §2

[10] = target: T10, human CD26-derived 13 mer peptide 96 (human); assay: peptide microarray
T10 peptide: YSFYSDESLQYPK
Description: as §1, §2

[11] = target: T11, human CD26-derived 13 mer peptide 97 (human); assay: peptide microarray
T11 peptide: FYSDESLQYPKTV
Description: as §1, §2

[12] = target: T12, human CD26-derived 13 mer peptide 100 (human); assay: peptide microarray
T12 peptide: LQYPKTVRVPYPK
Description: as §1, §2

[13] = target: T13, human CD26-derived 13 mer peptide 107 (human); assay: peptide microarray
T13 peptide: GAVNPTVKFFVVN
Description: as §1, §2

[14] = target: T14, human CD26-derived 13 mer peptide 109 (human); assay: peptide microarray
T14 peptide: PTVKFFVVNTDSL
Description: as §1, §2

[15] = target: T15, human CD26-derived 13 mer peptide 117 (human); assay: peptide microarray
T15 peptide: TNATSIQITAPAS
Description: as §1, §2

[16] = target: T16, human CD26-derived 13 mer peptide 122 (human); assay: peptide microarray
T16 peptide: PASMLIGDHYLCD
Description: as §1, §2

[17] = target: T17, human CD26-derived 13 mer peptide 124 (human); assay: peptide microarray
T17 peptide: LIGDHYLCDVTWA
Description: as §1, §2

[18] = target: T18, human CD26-derived 13 mer peptide 126 (human); assay: peptide microarray
T18 peptide: HYLCDVTWATQER
Description: as §1, §2

[19] = target: T19, human CD26-derived 13 mer peptide 127 (human); assay: peptide microarray
T19 peptide: LCDVTWATQERIS
Description: as §1, §2

[20] = target: T20, human CD26-derived 13 mer peptide 130 (human); assay: peptide microarray
T20 peptide: ATQERISLQWLRR
Description: as §1, §2

[21] = target: T21, human CD26-derived 13 mer peptide 131 (human); assay: peptide microarray
T21 peptide: QERISLQWLRRIQ
Description: as §1, §2

[22] = target: T22, human CD26-derived 13 mer peptide 132 (human); assay: peptide microarray
T22 peptide: RISLQWLRRIQNY
Description: as §1, §2

[23] = target: T23, human CD26-derived 13 mer peptide 5 (human); assay: peptide microarray
T23 peptide: KLYSLRWISDHEY
Description: as §1, §2

[24] = target: T24, human CD26-derived 13 mer peptide 6 (human); assay: peptide microarray
T24 peptide: YSLRWISDHEYLY
Description: as §1, §2

[25] = target: T25, human CD26-derived 13 mer peptide 9 (human); assay: peptide microarray
T25 peptide: SDHEYLYKQENNI
Description: as §1, §2

[26] = target: T26, human CD26-derived 13 mer peptide 10 (human); assay: peptide microarray
T26 peptide: HEYLYKQENNILV
Description: as §1, §2

[27] = target: T27, human CD26-derived 13 mer peptide 18 (human); assay: peptide microarray
T27 peptide: EYGNSSVFLENST
Description: as §1, §2

[28] = target: T28, human CD26-derived 13 mer peptide 19 (human); assay: peptide microarray
T28 peptide: GNSSVFLENSTFD
Description: as §1, §2

[29] = target: T29, human CD26-derived 13 mer peptide 22 (human); assay: peptide microarray
T29 peptide: LENSTFDEFGHSI
Description: as §1, §2

[30] = target: T30, human CD26-derived 13 mer peptide 25 (human); assay: peptide microarray
T30 peptide: DEFGHSINDYSIS
Description: as §1, §2

[31] = target: T31, human CD26-derived 13 mer peptide 28 (human); assay: peptide microarray
T31 peptide: INDYSISPDGQFI
Description: as §1, §2

[32] = target: T32, human CD26-derived 13 mer peptide 34 (human); assay: peptide microarray
T32 peptide: ILLEYNYVKQWRH
Description: as §1, §2

[33] = target: T33, human CD26-derived 13 mer peptide 35 (human); assay: peptide microarray
T33 peptide: LEYNYVKQWRHSY
Description: as §1, §2

[34] = target: T34, human CD26-derived 13 mer peptide 37 (human); assay: peptide microarray
T34 peptide: YVKQWRHSYTASY
Description: as §1, §2

[35] = target: T35, human CD26-derived 13 mer peptide 38 (human); assay: peptide microarray
T35 peptide: KQWRHSYTASYDI
Description: as §1, §2

[36] = target: T36, human CD26-derived 13 mer peptide 41 (human); assay: peptide microarray
T36 peptide: YTASYDIYDLNKR
Description: as §1, §2

[37] = target: T37, human CD26-derived 13 mer peptide 43 (human); assay: peptide microarray
T37 peptide: YDIYDLNKRQLIT
Description: as §1, §2

[38] = target: T38, human CD26-derived 13 mer peptide 55 (human); assay: peptide microarray
T38 peptide: TWSPVGHKLAYVW
Description: as §1, §2

[39] = target: T39, human CD26-derived 13 mer peptide 59 (human); assay: peptide microarray
T39 peptide: LAYVWNNDIYVKI
Description: as §1, §2

[40] = target: T40, human CD26-derived 13 mer peptide 60 (human); assay: peptide microarray
T40 peptide: YVWNNDIYVKIEP
Description: as §1, §2

[41] = target: T41, human CD26-derived 13 mer peptide 61 (human); assay: peptide microarray
T41 peptide: WNNDIYVKIEPNL
Description: as §1, §2

T1 sequence (P27487 29-766 limits assumed): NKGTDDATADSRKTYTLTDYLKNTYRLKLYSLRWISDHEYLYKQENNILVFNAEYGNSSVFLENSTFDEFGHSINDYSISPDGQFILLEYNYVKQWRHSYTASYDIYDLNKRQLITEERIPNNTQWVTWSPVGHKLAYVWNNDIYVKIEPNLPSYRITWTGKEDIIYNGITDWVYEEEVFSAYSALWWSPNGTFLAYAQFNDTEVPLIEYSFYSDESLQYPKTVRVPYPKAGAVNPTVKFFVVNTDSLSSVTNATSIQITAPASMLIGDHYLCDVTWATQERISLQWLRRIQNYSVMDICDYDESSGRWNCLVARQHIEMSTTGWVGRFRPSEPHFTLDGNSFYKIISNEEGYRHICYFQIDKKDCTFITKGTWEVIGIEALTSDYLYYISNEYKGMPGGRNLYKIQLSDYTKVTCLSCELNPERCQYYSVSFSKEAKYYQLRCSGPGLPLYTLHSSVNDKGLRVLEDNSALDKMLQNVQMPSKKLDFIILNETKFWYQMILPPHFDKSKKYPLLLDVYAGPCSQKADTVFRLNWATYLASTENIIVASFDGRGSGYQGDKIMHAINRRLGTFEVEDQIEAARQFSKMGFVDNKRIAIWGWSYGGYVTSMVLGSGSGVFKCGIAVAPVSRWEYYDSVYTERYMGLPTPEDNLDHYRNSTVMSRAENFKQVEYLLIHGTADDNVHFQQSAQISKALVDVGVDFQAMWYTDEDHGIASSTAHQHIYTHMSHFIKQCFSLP

B1: rhuMAb 411 (antibody, human IgG1, kappa, V domains shown)
VH: EVQLVESGAGVKQPGGTLRLTCTASGFSLTTYGVHWVRQAPGKGLEWVGVIWGDGRTDYDAAFMSRVTISKDTSKSTVYLQMNSLRAEDTAVYYCMRNRHDWFDYWGQGTTVTVSS
VL: DILLTQSPSSLSATPGERATITCRASQGIRNNLNWYQQKPGQAPRLLIYYSSNLQSGVPSRFSGSGSGTDFTLTISRLQPEDVAAYYCQQSIKLPFTFGSGTKVEIKR
notes: also called X411
Kd [1]: 244 pM
koff [1]: 6.63e-05 s⁻¹
kon [1]: 272000 M⁻¹ s⁻¹
Mean Signal Value [2]: 0.00962
Mean Signal Value [3]: 0
Mean Signal Value [4]: 33.6
Mean Signal Value [5]: 96.4
Mean Signal Value [6]: 0.524
Mean Signal Value [7]: 0.0288
Mean Signal Value [8]: 0
Mean Signal Value [9]: 0.269
Mean Signal Value [10]: 0.0144
Mean Signal Value [11]: 0.0144
Mean Signal Value [12]: 0.00962
Mean Signal Value [13]: 10.6
Mean Signal Value [14]: 0
Mean Signal Value [15]: 0.00962
Mean Signal Value [16]: 0.308
Mean Signal Value [17]: 12.7
Mean Signal Value [18]: 0.0337
Mean Signal Value [19]: 0.00962
Mean Signal Value [20]: 4.3
Mean Signal Value [21]: 5.25
Mean Signal Value [22]: 113
Mean Signal Value [23]: 43.1
Mean Signal Value [24]: 97.5
Mean Signal Value [25]: 0.0673
Mean Signal Value [26]: 0.0192
Mean Signal Value [27]: 0
Mean Signal Value [28]: 0
Mean Signal Value [29]: 0.0192
Mean Signal Value [30]: 0
Mean Signal Value [31]: 0.221
Mean Signal Value [32]: 15.7
Mean Signal Value [33]: 84.7
Mean Signal Value [34]: 98.2
Mean Signal Value [35]: 4.77
Mean Signal Value [36]: 0.0673
Mean Signal Value [37]: 0
Mean Signal Value [38]: 124
Mean Signal Value [39]: 0.683
Mean Signal Value [40]: 0.0769
Mean Signal Value [41]: 0.0385
